For the assay, the target named is F-actin (UniProt P68032). Briefly: co-sedimentation.
Take “E62Q mutant human α-tropomyosin (Tpm1.1) with the N-terminal extension Met-Ala-Ser (natural protein)”: the Kd was found to be 1700 nM. In other words, the single-digit micromolar range.

In turn, “E40K mutant human α-tropomyosin (Tpm1.1) with the N-terminal extension Met-Ala-Ser (natural protein)” registered a Kd of 1600 nM.

With “wild-type human striated α-tropomyosin (Tpm1.1) with the N-terminal extension Met-Ala-Ser (natural protein)”, the Kd was found to be 1800 nM.

The term Kd denotes the concentration at which binding is half-saturated.

Source of the values: article PMC5958618.
